Assay [1] concerns the target T1, recombinant human CD40-Fc (human, UniProt P25942 21-193).
T1 construct: also called rh-CD40-Fc; CD40-hFc
In words: ELISA, CD40-Fc coated, VHH at 40 nM. (In general: In an ELISA, binding on a coated surface is turned into a signal by an enzyme label.)
Description: (§1) After four times washing with PBST, the plate was incubated with detecting antibody anti-his-HRP (1:4000 dilution) 100 μl per well for one hour with shaking at 60 rpm. The plate was developed with 100 μL of TMB per well in the dark and then stopped by 50 μL of stop solution per well.

In assay [2] the target is T1, recombinant human CD40-Fc. In words: ELISA, CD40-Fc coated, VHH at 1000 nM.
Description: as §1
The target in assay [3] is T1, recombinant human CD40-Fc. In words: ELISA, CD40-Fc coated, VHH at 0.013 nM.
Description: as §1
The target of assay [4] is T1, recombinant human CD40-Fc. Briefly: ELISA, CD40-Fc coated, VHH at 0.064 nM.
Description: as §1
The target of assay [5] is T1, recombinant human CD40-Fc. In words: ELISA, CD40-Fc coated, VHH at 1.6 nM.
Description: as §1
In assay [6] the target is T1, recombinant human CD40-Fc. In words: ELISA, CD40-Fc coated, VHH at 0.0026 nM.
Description: as §1
Assay [7] deals with T1, recombinant human CD40-Fc. In words: ELISA, CD40-Fc coated, VHH at 200 nM.
Description: as §1
The target of assay [8] is T2, Human CD40 antigen (recombinant, BLI) (human, UniProt P25942 21-193).
T2 construct: also called rh-CD40
Briefly: BLI, VHH-His on anti-His tips, human CD40 in solution.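 Note: kinetics measured at 30 °C in PBS pH 7.2, association tracked for 200 s, then dissociation followed in PBS lacking CD40.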

The target in assay [9] is T1, recombinant human CD40-Fc. In words: ELISA, CD40-Fc coated, VHH at 8 nM.
Description: as §1
Assay [10] has as its target T1, recombinant human CD40-Fc. In words: ELISA, CD40-Fc coated, VHH at 0.32 nM.
Description: as §1
Assay [11] addresses T3, 4-1BB Fc (human, UniProt Q07011 24-183).
T3 construct: also called rh-41BB; 41BB-hFc
Briefly: ELISA, 4-1BB Fc coated, VHH at 500 nM.
Description: (§2) After four rounds of washing with PBST, the plate was incubated with detecting antibody anti-his-HRP (1:4000 dilution) 100 μl per well for one hour with shaking at 60 rpm. The plate was developed with 100 μL of TMB per well in the dark and then stopped by 50 μL of stop solution per well. […] Data was analyzed using GraphPad Prisma 9.1.

Assay [12] deals with T3, 4-1BB Fc. In words: ELISA, 4-1BB Fc coated, VHH at 0.005 nM.
Description: as §2
The target in assay [13] is T3, 4-1BB Fc. In words: ELISA, 4-1BB Fc coated, VHH at 0.05 nM.
Description: as §2
Assay [14] concerns the target T3, 4-1BB Fc. Briefly: ELISA, 4-1BB Fc coated, VHH at 0.00005 nM.
Description: as §2
In assay [15] the target is T3, 4-1BB Fc. Briefly: ELISA, 4-1BB Fc coated, VHH at 0.5 nM.
Description: as §2
Assay [16] deals with T3, 4-1BB Fc. In words: ELISA, 4-1BB Fc coated, VHH at 50 nM.
Description: as §2
Assay [17] addresses T3, 4-1BB Fc. In words: ELISA, 4-1BB Fc coated, VHH at 5 nM.
Description: as §2
For assay [18], the target named is T3, 4-1BB Fc. In words: ELISA, 4-1BB Fc coated, VHH at 0.0005 nM.
Description: as §2
The target of assay [19] is T4, human serum albumin (human, UniProt P02768 25-609).
T4 construct: also called HSA
Briefly: BLI (Gator), His-tagged VHH on anti-His sensor, HSA 100 nM in solution.
Description: (§3) Kinetic binding analysis of MSA VHHs were performed with Gator Prime system equipped with analyze software. […] The experiments were done at 30° C. Prior to analysis, sensors were socked in Q buffer for 600 sec with shaking at 1000 rpm, and then 2 μM of HIS tagged MSA VHHs were loaded to Anti-His sensors with shaking at 400 rpm for 120 sec. Loaded sensors were transferred into Q buffer for 60 sec. Association of HSA or MSA at 100 nM was initiated and monitored for 120-180 sec with shaking at 1000 rpm, and finally dissociation in Q buffer for 120-180 sec with 1000 rpm shaking. Software V2.0 (Gator Bio) was used for data analysis. The on-rate (Kₒₙ) and off-rate (Kd) were determined by fitting of the association and dissociation phases of each sample. The mathematical model used assumes a 1:1 stoichiometry, fitting only one analyte in solution binding to one binding site on the surface. The equilibrium dissociation constant (KD), a measure for affinity, was then calculated as the ratio of Kd and Kₒₙ.

Assay [20] deals with T5, murine serum albumin (murine, UniProt P07724 25-608).
T5 construct: As antigen 'MSA' means murine serum albumin; the VHHs also carry the label MSA; also called MSA
In words: BLI (Gator), His-tagged VHH on anti-His sensor, murine serum albumin 100 nM in solution.
Description: as §3

As a reminder, the Kd is the free concentration of one partner at which half of the binding sites on the other are occupied at equilibrium, for simple one-to-one binding. As a reminder, the koff is a measure of how fast the partners let go of each other. As usually defined, the kon is a measure of how fast the partners come together.

Some results are limits rather than exact numbers.

T3 sequence (Q07011 24-183): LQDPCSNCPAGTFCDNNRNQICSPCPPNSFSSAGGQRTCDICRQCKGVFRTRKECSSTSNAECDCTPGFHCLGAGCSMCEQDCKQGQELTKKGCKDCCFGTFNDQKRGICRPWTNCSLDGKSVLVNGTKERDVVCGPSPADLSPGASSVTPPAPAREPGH
T1 sequence (P25942 21-193): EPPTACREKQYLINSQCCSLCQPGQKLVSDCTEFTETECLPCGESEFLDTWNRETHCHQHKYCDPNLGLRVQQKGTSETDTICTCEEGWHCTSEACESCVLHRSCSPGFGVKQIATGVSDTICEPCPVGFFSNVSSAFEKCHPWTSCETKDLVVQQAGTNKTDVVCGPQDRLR
T2 sequence (P25942 21-193 limits assumed): as the sequence (P25942 21-193) above

B1: pgDD40-SZ-3 (VHH, not shown: small tags and cut ends)
VHH: QVQLVESGGGLVQAGDSLRLSCTASGRAFNTYTMAWFRQAPGKERDFVAAISRDGTITHYADSVKGRFTTTRDNAKNTMYLQMSSLKYDDTAVYYCAARRVGAVPERESAYEHWGQGTQVTVSS
With B1, the OD450 worked out at 1.64 in assay [1]; 1.57 in assay [2]; 0.055 in assay [3]; 0.098 in [4]; 1.02 in [5]; 0.055 in assay [6]. The OD450 in assay [7] came out at 1.64; in assay [9] it was 1.59; in assay [10] it was 0.287. For the same molecule, in [8], the Kd worked out at 0.106 nM. For the same molecule, the dissociation rate constant (koff) in assay [8] worked out at 7.65e-05 s⁻¹. Further, the kon in assay [8] is 722000 M⁻¹ s⁻¹.

B2: 4-1BB-39 (VHH, not shown: small tags and cut ends)
VHH: QVQLGSLGGGSAQPGGSLRLSCTGSGNVYDFVVMGWYRQFPGRQRELVANITGRASPNYVDSVKGRFTISRDNAQNTVHLQMNNLKVEDSAIYYCYAAQQLTTIAGVMTLDYWGSGTQVTVSS
In the case of B2, the OD450 is 0.098 in assay [11]; 0.064 in assay [12]; 0.068 in [13]; 0.063 in assay [14]; 0.059 in [15]; 0.065 in assay [16]. For the same molecule, the OD450 in assay [17] turned out to be 0.07; in assay [18] it was 0.072.

B3: MSA1 (VHH)
VHH: EVQLVESGGGLAQAGGSLRLSCADSGHSFSLYAMAWFRQTPEKEREFVAAISSSGGDTYYADSVKGRFTISRENAKNTAYLQMDSLKPGDTAVYFCAGNYYTSQLMRGMYEHWGQGTQVTVSS
notes: Llama single domain antibody with C-terminal His-tag, made in HEK293; not shown: C-terminal His-tag
On to B3, for which, in assay [19], the koff was determined as 0.0217 s⁻¹. Besides, in [20], binding was put at a Kd of 6.64 nM, the koff was 0.00117 s⁻¹ and the kon stood at 176000 M⁻¹ s⁻¹.

B4: MSA B1 (VHH)
VHH: EVQLVESGGGLVQPGGSLHLSCAASRLTTGVTFSDYGMAWFRQAPGAERELLANINWSGQYTNYRDSVKGRAAIFRDNAKNTLYLNINSLKAEDTAVYYCAASSRKYGPGIKSQYEWWGQGTQVTVSS
notes: as for B3
As for B4, in assay [19], binding was characterised by a dissociation constant (Kd) of 11.3 nM, the koff was determined as 0.00511 s⁻¹ and the kon came to 454000 M⁻¹ s⁻¹. In [20], this molecule displayed a dissociation constant (Kd) of 5.32 nM, a koff of 0.000605 s⁻¹ and a kon of 114000 M⁻¹ s⁻¹.

B5: pgDD40-SZ-12 (VHH, not shown: small tags and cut ends)
VHH: EVQLVESGGGLVQPGGSLKLSCAASGFAFSRYTMSWVRQAPGKGLEWVSGIDSGGGRTSYINSVKGRFTISRDNAKNTLYLQMNSLKPEDTAVYHCAQGGDSGSYYRTSWGQGTQVTVSS
B5: the OD450 in [1] stood at 0.256; in assay [2], 1.54; in assay [3], 0.058; in [4], 0.065; in assay [5], 0.061; in assay [6] it was 0.06. For the same molecule, the OD450 in assay [7] was 0.895; in assay [9], 0.09; in assay [10], 0.059. Further, in [8], the Kd was found to be 1.43 nM. In assay [8], the koff is 0.000806 s⁻¹. In assay [8], the kon was determined as 564000 M⁻¹ s⁻¹.

B6: pgDD40-HZ-28 (VHH, not shown: small tags and cut ends)
VHH: EVQLVESGGGLVQAGGSLRLSCVASERTFTPVRMGWFRQAPGKEREIVAAITWSDGSTYYADAVKGRFTISRDNALNAVYLQIDSLKPEDTAVYVCAASTSPYSTHLQFRYWGQGTQVTVSS
B6: the OD450 was found to be 0.067 in assay [1]; 0.419 in [2]; 0.075 in assay [3]; 0.07 in assay [4]; 0.062 in assay [5]; 0.061 in [6]. Moreover, the OD450 in [7] was determined as 0.123; in assay [9], 0.059; in assay [10], 0.066. Moreover, the Kd in assay [8] is 4.06 nM. The koff in assay [8] was 0.00372 s⁻¹. Moreover, the kon in assay [8] was determined as 917000 M⁻¹ s⁻¹.

B7: pgDD40-SZ-7 (VHH, not shown: small tags and cut ends)
VHH: QVQLVESGGALAQPGGSLRLSCEASATVRSVNAMAWYRQGPGKPRELVANITSGDTTYYADSVKGRFTLSREGARNTVYLQMNSLKPEDTAVYQCNIHYTSTGGIRRDYWGRGTQVTVSS
As for B7, the OD450 came out at 1.67 in assay [1]; 1.67 in assay [2]; 0.092 in [3]; 0.088 in assay [4]; 1.01 in assay [5]; 0.056 in assay [6]. For the same molecule, the figures for the OD450 in assay [7], in assay [9] and in assay [10] were 1.62, 1.6 and 0.332, respectively. Besides, the Kd in assay [8] was less than 0.001 nM. Also, the off-rate (koff) in assay [8] amounted to 1e-06 s⁻¹. In addition, in [8], the kon was determined as 721000 M⁻¹ s⁻¹.

B8: pgDD40-SZ-1 (VHH, not shown: small tags and cut ends)
VHH: QVQLVESGGALAQPGGSLRLSCEASTNVRSVNAMAWYRQGPGKPRELVANITSDDATYYADSVKGRFTLSREGARNTVYLQMNSLKPEDTAVYQCNVHYTSWGGIRRDYWGRGTQVTVSS
Regarding B8, the OD450 was found to be 1.72 in assay [1]; 1.68 in assay [2]; 0.056 in assay [3]; 0.074 in assay [4]; 0.866 in assay [5]; 0.055 in [6]. The OD450 in assay [7] is 1.69; in [9], 1.66; in [10], 0.248. The Kd in assay [8] was less than 0.001 nM. For the same molecule, in assay [8], the koff is 1e-06 s⁻¹. The on-rate (kon) in assay [8] is 779000 M⁻¹ s⁻¹.

B9: pgDD40-SZ-2 (VHH, not shown: small tags and cut ends)
VHH: EVQLVESGGALAQPGGSLRLSCEASATIRSVNAMAWYRQGPGKPREMVANITSGDTTYYADSVKGRFTLSREGARNTVYLQMNSLKPEDTAVYQCNIHYTSTGGIRRDYWGRGTQVTVSS
For B9, the OD450 in [1] worked out at 1.72; in assay [2] it was 1.64; in assay [3] it was 0.062; in assay [4], 0.091; in [5], 0.94; in assay [6], 0.058. Further, the values for the OD450 in assay [7], in assay [9] and in assay [10] were 1.52, 1.59 and 0.293, respectively. Besides, the Kd in [8] came out at 0.0047 nM. The koff in [8] turned out to be 3.59e-06 s⁻¹. Besides, the kon in assay [8] was 765000 M⁻¹ s⁻¹.

B10: pgDD40-SZ-5 (VHH, not shown: small tags and cut ends)
VHH: QVQLVESGGALAQPGGSLRLSCEASENVRSVNAMAWYRQGPGKPRELVANITSGDATYYADSVKGRFTLSREGARNTVYLQMNSLKPEDTAVYQCNVHYTSWGGIRRDYWGRGTQVTVSS
As to B10, the OD450 in assay [1] turned out to be 1.68; in assay [2] it was 1.67; in [3] it was 0.061; in assay [4], 0.085; in [5], 0.85; in assay [6], 0.059. Besides, the OD450 turned out to be 1.73 in [7], 1.41 in assay [9] and 0.25 in [10]. In addition, the Kd in assay [8] is less than 0.001 nM. For the same molecule, the koff in [8] was 1e-06 s⁻¹. The kon in [8] is 784000 M⁻¹ s⁻¹.

B11: pgDD40-HZ-47 (VHH, not shown: small tags and cut ends)
VHH: QVQLVESGGGLVQPGGSMRLSCSASGFSISVYWMSWVRRAPGKGLEWVSNLGADGVTAQYSDSVKGRFTIARDTAKNTLYLQMNSLKPEDTAVYYCNAMTGMNPAEEEAYWGQGTQVTVSS
Regarding B11, the OD450 turned out to be 0.066 in [1]; 0.569 in assay [2]; 0.055 in assay [3]; 0.053 in assay [4]; 0.056 in assay [5]; 0.06 in assay [6]. Further, the figures for the OD450 in assay [7], in assay [9] and in assay [10] were 0.126, 0.063 and 0.063, respectively. Further, the Kd in assay [8] is 0.469 nM. Further, the koff in [8] stood at 0.000625 s⁻¹. Also, the kon in assay [8] was found to be 1.33e+06 M⁻¹ s⁻¹.

For the origin of these results see patent publication US20250376535A1 (BEIJING STARMAB BIOMED TECHNOLOGY, published 2025).
